The values that follow come from publication PMC3388944.

The data set concerns the target T1, GST-IE(1-1487) (immediate-early protein IEP, full length) (Equine herpesvirus 1, UniProt P17473 1-1487).
T1 sequence: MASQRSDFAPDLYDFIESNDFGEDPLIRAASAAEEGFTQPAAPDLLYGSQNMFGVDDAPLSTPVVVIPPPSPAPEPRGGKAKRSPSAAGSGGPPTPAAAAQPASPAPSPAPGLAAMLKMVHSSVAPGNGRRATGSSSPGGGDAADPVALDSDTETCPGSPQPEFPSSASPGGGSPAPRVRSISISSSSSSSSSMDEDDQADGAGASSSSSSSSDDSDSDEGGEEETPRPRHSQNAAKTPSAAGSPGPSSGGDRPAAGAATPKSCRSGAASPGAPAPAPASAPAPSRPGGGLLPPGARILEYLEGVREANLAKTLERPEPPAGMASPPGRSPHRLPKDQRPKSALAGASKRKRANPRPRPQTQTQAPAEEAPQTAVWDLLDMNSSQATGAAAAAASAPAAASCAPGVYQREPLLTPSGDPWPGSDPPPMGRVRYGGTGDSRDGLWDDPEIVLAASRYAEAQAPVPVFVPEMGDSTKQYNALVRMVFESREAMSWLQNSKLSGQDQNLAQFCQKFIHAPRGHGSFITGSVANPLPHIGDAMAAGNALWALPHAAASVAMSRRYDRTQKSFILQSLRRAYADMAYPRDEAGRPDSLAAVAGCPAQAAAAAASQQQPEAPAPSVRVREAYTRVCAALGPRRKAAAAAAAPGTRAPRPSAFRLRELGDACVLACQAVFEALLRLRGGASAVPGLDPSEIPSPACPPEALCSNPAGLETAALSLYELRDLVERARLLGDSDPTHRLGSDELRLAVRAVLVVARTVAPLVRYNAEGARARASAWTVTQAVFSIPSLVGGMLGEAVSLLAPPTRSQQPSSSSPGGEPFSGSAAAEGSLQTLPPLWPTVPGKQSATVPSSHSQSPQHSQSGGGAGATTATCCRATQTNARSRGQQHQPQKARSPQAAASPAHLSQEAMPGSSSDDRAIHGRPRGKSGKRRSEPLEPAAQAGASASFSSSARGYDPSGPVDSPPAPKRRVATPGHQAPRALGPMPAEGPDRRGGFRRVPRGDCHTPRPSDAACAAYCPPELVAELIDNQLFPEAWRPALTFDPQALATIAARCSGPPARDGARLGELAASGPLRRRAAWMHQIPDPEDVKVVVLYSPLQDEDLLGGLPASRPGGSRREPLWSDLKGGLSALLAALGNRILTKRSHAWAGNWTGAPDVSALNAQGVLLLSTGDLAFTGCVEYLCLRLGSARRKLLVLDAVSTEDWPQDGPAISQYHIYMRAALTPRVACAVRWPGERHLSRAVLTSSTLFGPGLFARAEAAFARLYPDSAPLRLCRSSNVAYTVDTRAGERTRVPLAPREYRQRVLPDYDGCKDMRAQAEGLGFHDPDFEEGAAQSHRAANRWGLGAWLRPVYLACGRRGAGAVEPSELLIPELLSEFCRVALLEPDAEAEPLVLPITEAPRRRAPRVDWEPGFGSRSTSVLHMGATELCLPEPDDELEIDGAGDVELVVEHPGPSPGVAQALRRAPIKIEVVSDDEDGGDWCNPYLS
In words: EMSA. A general note: A gel shift assay detects complexes by their altered migration in electrophoresis.

B1: wtIEBS probe (IE promoter -16 to +22) (dsDNA)
DNA 1: TTGCTTACCCATCGTAGCATCGCGGACTAGAGAGCCTT
DNA 2: TTAAGGCTCTCTAGTCCGCGATGCTACGATGGGTAAGC
For the molecule B1, the binding result was “binds”.
